Source: patent publication US20240398804

Target: YAP1 Y357F (UniProt P46937)

| Substance | YAP1 tyrosine phosphorylation (immunoprecipitation, immunoblot) |
| --- | --- |
| WT SRC (expressed from plasmid in 293T cells) | Under conditions where YES1 or SRC phosphorylated YAP1, we failed to detect phosphorylation of the YAP1 Y357F mutant |
| YES1 (Yamaguchi sarcoma viral oncogene homolog 1) | Under conditions where YES1 or SRC phosphorylated YAP1, we failed to detect phosphorylation of the YAP1 Y357F mutant |
